Assay results published in patent US10323078B2, “Isolated peptides and fragments thereof from fibrinogen for use as drugs, particularly in skin inflammatory diseases” (Universite Paris Descartes, priority 2015, dated 2019).

Key:
Type in all cases: cell-based, human
HDF cells [1] = assay: TNF-α production by P. acnes-stimulated HDF (ELISA); conditions: 0.87 to 7 μM
Method: (§1) For experiences of stimulation with P. acnes, cells were incubated with the P. acnes suspension adjusted at the appropriate concentration, pre-treated for 1 h at 37° C. or not with fibrinogen recombinant peptides Fg1 and Fg2 at the concentrations 0.87, 1.75, 3.5 or 7 μM for the desired period of time at 37° C. in 5% CO2.
(§2) Human IL-1ß, IL-8, IL-12, hBD-2, and TNF-α protein concentration was measured in the supernatants of stimulated cells using various ELISA Set kits (Ready-Set-Go kit from eBioscience for acne experiments, and for psoriasis experiments the Duo set IL-8 kit from R&D Systems and the BD-2 Human Development (hBD-2) from Peprotech) according to the manufacturer's instructions. We used serial dilutions of recombinant human IL-1ß, IL-8, IL-12 and TNF-α for standard curve. The optical density was determined at 450 nm at a wavelength correction of 540 nm.
(§3) To assess the efficacy of Fg1 recombinant peptide, the production of O2^∘− and H2O2 by HaCaT cells NHDK, THP-1, MRC5 and HDF stimulated by pretreated P. acnes strains 6919, RON and PIE was measured. The amount of ROS produced was compared to that produced by the stimulated cells with untreated bacteria. Production baseline was obtained by measuring ROS on unstimulated cells. The production of IL-1ß, IL-8, IL-12 and TNF-α was also measured in all conditions cited above. The measurement of the production of ROS is performed by spectrofluorimetry in the presence of specific fluorochromes directly on the monolayer cell. Measurement of cytokine production was performed in parallel on the cell culture supernatant.
(§4) Two sets of experiments were implemented: 1) The cells were stimulated (18 h at 37° C.) by P. acnes strains previously pretreated with Fg1 and Fg2 peptides at the final concentrations ranging from 0.87 to 7 μM for 1 h at 37° C.; and 2) The cells were pretreated first with Fg1 and Fg2 peptides at the final concentrations ranging from 0.87 to 7 μM for 24 h at 37° C. and stimulated (18 h at 37° C.) by P. acnes strains.

ThP1 cells [2] = assay: IL-1β production by P. acnes-stimulated ThP1 (ELISA); conditions: for Inhibition of Interleukine 1 beta (IL-1β) production: ThP1, 0.87 to 7 μM
Method: as §1, §2, §3, §4

ThP1 cells [3] = assay: H2O2 production by P. acnes-stimulated ThP1; conditions: 0.87 to 7 μM
Method: as §1
(§5) All cells lines (5·10^4 to 10^5 cells/well) were seeded in 96-well plates (Corning Costar, Brumath, France) and treated as previously described. After stimulation, cells were washed three times in PBS and incubated with 100 μl per wells of 5 μM DHE (for determination of O2^●−) or 5 μM H2-DCFDA (for determination of H2O2) for 30 min as described previously and fluorescence intensity was recorded every hour over a period of 5 h. Fluorescence excitation/emission maxima were for DHE: 480/610 nm and for H2-DCFDA: 507/525 nm. At the end of the experiment, the number of adherent cells was evaluated by the crystal violet assay as described below. O2^●−, and H2O2 were assayed by spectrofluorimetry on a Fusion spectrofluorimeter (PackardBell, Paris, France). Levels of ROS were calculated in each sample as follows: reactive oxygen species rate (arbitrary units/min/10^6 cells)=(fluorescence intensity [arbitrary units] at T5h—fluorescence intensity [arbitrary units] at To/300 minutes/number of adherent cells as measured by the crystal violet assay, and were expressed as arbitrary unit (A.U.).
as §3, §4
To assess the efficacy of the small Fg1-related peptide, the production of H2O2 by several cell lines (HaCaT, NHDK, THP-1, MRC5 and HDF) stimulated by three P. acnes strains 6919, RON and PIE was measured, in presence or not with the small peptides. The amount of H2O2 produced is compared to that produced by the stimulated cells with untreated bacteria. Production baseline is obtained by measuring H2O2 on unstimulated cells. The measurement of the production of H2O2 is performed by spectrofluorimetry in the presence of specific fluorochromes directly on the monolayer cell.
Two sets of experiments have been implemented: • I) The cells are stimulated (18 h at 37° C.) by P. acnes strains previously pretreated with Fg1.1, Fg1.2, Fg1.3, Fg1.4, and Fg1.5 small peptides at the final concentrations ranging from 2.5 to 20 μM for 1 h at 37° C.; • II) The cells are pretreated first with the five small peptides at the final concentrations ranging from 2.5 to 20 μM for 24 h at 37° C. and stimulated (18 h at 37° C.) by P. acnes strains.

HDF cells [4] = assay: O2°− production by P. acnes-stimulated HDF; conditions: 0.87 to 7 μM
Method: as §1, §5, §3, §4

ThP1 cells [5] = assay: TNF-α production by P. acnes-stimulated ThP1 (ELISA); conditions: 0.87 to 7 μM
Method: as §1, §2, §3, §4

[6] = test system: HaCaT, NHDK, THP-1, MRC5 and HDF; assay: O2°− production by cells stimulated with P. acnes, overall statement for the five cell lines; conditions: pretreatment of P. acnes strains; five cell lines and three strains tested
Method: as §1
as §5, with “O2^●−, and H2O2 were assayed by spectrofluorimetry on a Fusion spectrofluorimeter (PackardBell, Paris, France).” left out, “(A.U.). […]” for “(A.U.).”

[7] = P. acnes 6919, set I, bacteria first pretreated
[8] = P. acnes 6919, set II, cells first pretreated
[9] = P. acnes PIE, set I, bacteria first pretreated
[10] = P. acnes PIE, set II, cells first pretreated
[11] = P. acnes RON, set I, bacteria first pretreated
[12] = P. acnes RON, set II, cells first pretreated

B1: MKRMVSWSFHKLKTMKHLLLLLLCVFLVKSQGVNDNEEGFFSARGHRPLDKKREEAPSLRPAPPPISGGGYRARPAKAAATQKKVERKAPDAGGCLHADPDLGVLC (protein)
chain: MKRMVSWSFHKLKTMKHLLLLLLCVFLVKSQGVNDNEEGFFSARGHRPLDKKREEAPSLRPAPPPISGGGRARPAKAAATQKKVERKAPDAGGCLHADPDLGVLCMKRMVSWSFHKLKTMKHLLLLLLCVFLVKSQGVNDNEEGFFSARGHRPLDKKREEAPSLRPAPPPISGGGYRARPAKAAATQKKVERKAPDAGGCLHADPDLGVLC
modifications: GST fusion; fragment Fg1
notes: fragment of Bß chain of human fibrinogen having 106 amino acids; recombinant GST-fused peptide expressed in E. coli
How did the “Inhibition of Interleukine TNF alpha (TNF-α) production” value (from here on “Inhibition of Interleukine TNF alpha”) (HDF cells [1]; [7]) turn out when B1 was run?
The value was “pos”.

What about the “Inhibition of Interleukine TNF alpha” value (HDF cells [1]; [8]) of the same molecule?
The value was “pos”.

And the “Inhibition of Interleukine TNF alpha” value (HDF cells [1]; [9])?
Its value is “pos”.

What about the “Inhibition of Interleukine TNF alpha” value (HDF cells [1]; [10]) of the same molecule?
The value was “pos”.

And the “Inhibition of Interleukine TNF alpha” value (HDF cells [1]; [11])?
The value was “pos”.

And the “Inhibition of Interleukine TNF alpha” value (HDF cells [1]; [12])?
Its value is “pos”.

What about the “Inhibition of Interleukine 1 beta (IL-1β) production” value (shortened to “Inhibition of Interleukine 1 beta”) (ThP1 cells [2]; [7]) of the same molecule?
The value was “NO (Inhibition NO: Fg1 has no effect on the production of inflammatory molecule)”.

What about the “Inhibition of Interleukine 1 beta” value (ThP1 cells [2]; [8]) of the same molecule?
The value was “NO (Inhibition NO: Fg1 has no effect on the production of inflammatory molecule)”.

What about the “Inhibition of Interleukine 1 beta” value (ThP1 cells [2]; [9]) of the same molecule?
The value was “NO (Inhibition NO: Fg1 has no effect on the production of inflammatory molecule)”.

And the “Inhibition of Interleukine 1 beta” value (ThP1 cells [2]; [10])?
The value was “NO (Inhibition NO: Fg1 has no effect on the production of inflammatory molecule)”.

And the “Inhibition of Interleukine 1 beta” value (ThP1 cells [2]; [11])?
The value was “NO (Inhibition NO: Fg1 has no effect on the production of inflammatory molecule)”.

What about the “Inhibition of Interleukine 1 beta” value (ThP1 cells [2]; [12]) of the same molecule?
The value was “NO (Inhibition NO: Fg1 has no effect on the production of inflammatory molecule)”.

And the “Effect on the production of IL-1ß” value (ThP1 cells [2]; whatever the strain of P. acnes used, production effective only for monocytes)?
The value was “no effect”.

And the “Inhibition of Hydrogen peroxide (H2O2) production” value (“Inhibition of Hydrogen peroxide” for short) (ThP1 cells [3]; [7])?
The value was “pos”.

And the “Inhibition of Hydrogen peroxide” value (ThP1 cells [3]; [8])?
Its value is “pos”.

What about the “Inhibition of Hydrogen peroxide” value (ThP1 cells [3]; [9]) of the same molecule?
The value was “pos”.

And the “Inhibition of Hydrogen peroxide” value (ThP1 cells [3]; [10])?
Its value is “pos”.

What about the “Inhibition of Hydrogen peroxide” value (ThP1 cells [3]; [11]) of the same molecule?
Its value is “pos”.

And the “Inhibition of Hydrogen peroxide” value (ThP1 cells [3]; [12])?
Its value is “pos”.

What about the “Inhibition of Superoxide anion (O2°−) production” value (shortened to “Inhibition of Superoxide anion”) (HDF cells [4]; [7]) of the same molecule?
Its value is “pos”.

What about the “Inhibition of Superoxide anion” value (HDF cells [4]; [8]) of the same molecule?
The value was “pos”.

And the “Inhibition of Superoxide anion” value (HDF cells [4]; [9])?
Its value is “pos”.

And the “Inhibition of Superoxide anion” value (HDF cells [4]; [10])?
The value was “pos”.

What about the “Inhibition of Superoxide anion” value (HDF cells [4]; [11]) of the same molecule?
Its value is “pos”.

What about the “Inhibition of Superoxide anion” value (HDF cells [4]; [12]) of the same molecule?
The value was “pos”.

And the “Inhibition of Interleukine TNF alpha” value (ThP1 cells [5]; [7])?
Its value is “pos”.

And the “Inhibition of Interleukine TNF alpha” value (ThP1 cells [5]; [8])?
Its value is “pos”.

And the “Inhibition of Interleukine TNF alpha” value (ThP1 cells [5]; [9])?
The value was “pos”.

And the “Inhibition of Interleukine TNF alpha” value (ThP1 cells [5]; [10])?
Its value is “pos”.

And the “Inhibition of Interleukine TNF alpha” value (ThP1 cells [5]; [11])?
Its value is “pos”.

And the “Inhibition of Interleukine TNF alpha” value (ThP1 cells [5]; [12])?
Its value is “pos”.

And the “Inhibition of O2°− production” value [6]?
The value was “in a dose-dependent manner”.
